# Laboratory results from patent US20230322957A1 (ENGMAB SARL, published 2023).
# T1: human BCMA on the cell surface (human, UniProt Q02223 1-184)
# T1 sequence (looked up): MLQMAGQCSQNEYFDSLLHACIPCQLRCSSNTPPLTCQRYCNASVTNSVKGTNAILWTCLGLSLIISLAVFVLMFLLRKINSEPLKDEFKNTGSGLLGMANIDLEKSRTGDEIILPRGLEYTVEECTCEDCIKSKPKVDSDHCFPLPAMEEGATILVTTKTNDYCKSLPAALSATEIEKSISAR
# Columns and labels:
# Test in all cases: cell-based or functional assay
# [1] = biological target: T1, human BCMA on the cell surface
# [2] = biological target: T1, human BCMA on the cell surface; remark: listed apart in the source
# [3] = biological target: T1, human BCMA on the cell surface; remark: listed apart in the source
# [4] = biological target: T1, human BCMA on the cell surface; remark: listed apart in the source
# [5] = biological target: T1, human BCMA on the cell surface; remark: listed apart in the source
# [6] = biological target: T1, human BCMA on the cell surface; remark: listed apart in the source
binder,measurement,setting,value
"21-TCBcv (bispecific antibody, human IgG1, kappa, L234A L235A) heavy 1: not shown heavy 2: EVQLLESGGGLVQPGGSLRLSCAASGFTFSDNAMGWVRQAPGKGLEWVSAISGPGSSTYYADSVKGRFTISRDNSKNTLYLQMNSLRAEDTAVYYCAKVLGWFDYWGQGTLVTVSSASTKGPSVFPLAPSSKSTSGGTAALGCLVEDYFPEPVTVSWNSGALTSGVHTFPAVLQSSGLYSLSSVVTVPSSSLGTQTYICNVNHKPSNTKVDEKVEPKSCDKTHTCPPCPAPEAAGGPSVFLFPPKPKDTLMISRTPEVTCVVVDVSHEDPEVKFNWYVDGVEVHNAKTKPREEQYNSTYRVVSVLTVLHQDWLNGKEYKCKVSNKALGAPIEKTISKAKGQPREPQVCTLPPSRDELTKNQVSLSCAVKGFYPSDIAVEWESNGQPENNYKTTPPVLDSDGSFFLVSKLTVDKSRWQQGNVFSCSVMHEALHNHYTQKSLSLSPGK light 1: EIVLTQSPGTLSLSPGERATLSCRASQSVSEYYLAWYQQKPGQAPRLLIEHASTRATGIPDRFSGSGSGTDFTLTISRLEPEDFAVYYCQQYGYPPDFTFGQGTKVEIKRTVAAPSVFIFPPSDRKLKSGTASVVCLLNNFYPREAKVQWKVDNALQSGNSQESVTEQDSKDSTYSLSSTLTLSKADYEKHKVYACEVTHQGLSSPVTKSFNRGEC light 2: EVQLLESGGGLVQPGGSLRLSCAASGFTFSTYAMNWVRQAPGKGLEWVSRIRSKYNNYATYYADSVKGRFTISRDDSKNTLYLQMNSLRAEDTAVYYCVRHGNFGNSYVSWFAYWGQGTLVTVSSASVAAPSVFIFPPSDEQLKSGTASVVCLLNNFYPREAKVQWKVDNALQSGNSQESVTEQDSKDSTYSLSSTLTLSKADYEKHKVYACEVTHQGLSSPVTKSFNRGEC","EC50 redirected T-cell killing of H929 cells (LDH release), Donor 1",[1],97.1 pM
same,"EC50 redirected T-cell killing of H929 cells (LDH release), Donor 3",[1],42.1 pM
same,"EC50 redirected T-cell killing of H929 cells (LDH release), Donor 4",[1],53.9 pM
same,"EC50 redirected T-cell killing of H929 cells (LDH release), Donor 5",[1],38.7 pM
same,"EC50 redirected T-cell killing of L363 cells (LDH release), Donor 1",[2],83.6 pM
same,"EC50 redirected T-cell killing of L363 cells (LDH release), Donor 2",[2],38.4 pM
same,"EC50 redirected T-cell killing of L363 cells (LDH release), Donor 3",[2],18.9 pM
same,"EC50 redirected T-cell killing of L363 cells (LDH release), Donor 4",[2],19.1 pM
same,"EC50 redirected T-cell killing of L363 cells (LDH release), Donor 5",[2],46.4 pM
same,"EC50 redirected T-cell killing of RPMI-8226 cells (LDH release), Donor 2",[3],41.3 pM
same,"EC50 redirected T-cell killing of RPMI-8226 cells (LDH release), Donor 3",[3],8.8 pM
same,"EC50 redirected T-cell killing of RPMI-8226 cells (LDH release), Donor 4",[3],4 pM
same,"EC50 redirected T-cell killing of RPMI-8226 cells (LDH release), Donor 5",[3],8.4 pM
"22-TCBcv (bispecific antibody, human IgG1, kappa, L234A L235A) heavy 1: not shown heavy 2: EVQLLESGGGLVQPGGSLRLSCAASGFTFSDNAMGWVRQAPGKGLEWVSAISGPGSSTYYADSVKGRFTISRDNSKNTLYLQMNSLRAEDTAVYYCAKVLGWFDYWGQGTLVTVSSASTKGPSVFPLAPSSKSTSGGTAALGCLVEDYFPEPVTVSWNSGALTSGVHTFPAVLQSSGLYSLSSVVTVPSSSLGTQTYICNVNHKPSNTKVDEKVEPKSCDKTHTCPPCPAPEAAGGPSVFLFPPKPKDTLMISRTPEVTCVVVDVSHEDPEVKFNWYVDGVEVHNAKTKPREEQYNSTYRVVSVLTVLHQDWLNGKEYKCKVSNKALGAPIEKTISKAKGQPREPQVCTLPPSRDELTKNQVSLSCAVKGFYPSDIAVEWESNGQPENNYKTTPPVLDSDGSFFLVSKLTVDKSRWQQGNVFSCSVMHEALHNHYTQKSLSLSPGK light 1: EIVLTQSPGTLSLSPGERATLSCRASQSVSSYYLAWYQQKPGQAPRLLISGAGSRATGIPDRFSGSGSGTDFTLTISRLEPEDFAVYYCQQYGYPPDFTFGQGTKVEIKRTVAAPSVFIFPPSDRKLKSGTASVVCLLNNFYPREAKVQWKVDNALQSGNSQESVTEQDSKDSTYSLSSTLTLSKADYEKHKVYACEVTHQGLSSPVTKSFNRGEC light 2: EVQLLESGGGLVQPGGSLRLSCAASGFTFSTYAMNWVRQAPGKGLEWVSRIRSKYNNYATYYADSVKGRFTISRDDSKNTLYLQMNSLRAEDTAVYYCVRHGNFGNSYVSWFAYWGQGTLVTVSSASVAAPSVFIFPPSDEQLKSGTASVVCLLNNFYPREAKVQWKVDNALQSGNSQESVTEQDSKDSTYSLSSTLTLSKADYEKHKVYACEVTHQGLSSPVTKSFNRGEC",Annexin-V positive patient bone marrow myeloma plasma cells (%) at 10 pM,[4],14.2%
same,Annexin-V positive patient bone marrow myeloma plasma cells (%) at 100 pM,[4],14.8%
same,Annexin-V positive patient bone marrow myeloma plasma cells (%) at 1000 pM,[4],31%
same,Annexin-V positive patient bone marrow myeloma plasma cells (%) at 10000 pM,[4],51.7%
same,Annexin-V positive patient bone marrow myeloma plasma cells (%) at 30000 pM,[4],55.7%
same,"EC50 redirected T-cell killing of H929 cells (LDH release), Donor 1",[1],53.2 pM
same,"EC50 redirected T-cell killing of H929 cells (LDH release), Donor 3",[1],42.2 pM
same,"EC50 redirected T-cell killing of H929 cells (LDH release), Donor 4",[1],23.2 pM
same,"EC50 redirected T-cell killing of H929 cells (LDH release), Donor 5",[1],28.9 pM
same,"EC50 redirected T-cell killing of L363 cells (LDH release), Donor 1",[2],97.5 pM
same,"EC50 redirected T-cell killing of L363 cells (LDH release), Donor 2",[2],27.7 pM
same,"EC50 redirected T-cell killing of L363 cells (LDH release), Donor 3",[2],16.5 pM
same,"EC50 redirected T-cell killing of L363 cells (LDH release), Donor 4",[2],14.6 pM
same,"EC50 redirected T-cell killing of L363 cells (LDH release), Donor 5",[2],56 pM
same,"Annexin-V positive JJN-3 cells (%) at 0.1 pM, Experiment 2",[5],14.8%
same,"Annexin-V positive JJN-3 cells (%) at 1 pM, Experiment 1",[5],9.3%
same,"Annexin-V positive JJN-3 cells (%) at 1 pM, Experiment 2",[5],15%
same,"Annexin-V positive JJN-3 cells (%) at 10 pM, Experiment 1",[5],13.3%
same,"Annexin-V positive JJN-3 cells (%) at 10 pM, Experiment 2",[5],15.9%
same,"Annexin-V positive JJN-3 cells (%) at 100 pM, Experiment 1",[5],12.5%
same,"Annexin-V positive JJN-3 cells (%) at 100 pM, Experiment 2",[5],18.4%
same,"Annexin-V positive JJN-3 cells (%) at 1000 pM, Experiment 1",[5],26.1%
same,"Annexin-V positive JJN-3 cells (%) at 1000 pM, Experiment 2",[5],27%
same,"Annexin-V positive JJN-3 cells (%) at 10000 pM, Experiment 1",[5],22.9%
same,"Annexin-V positive JJN-3 cells (%) at 10000 pM, Experiment 2",[5],29.7%
same,"Lysis of JJN-3 cells (%) at 0.1 pM, Experiment 2",[6],36.5%
same,"Lysis of JJN-3 cells (%) at 1 pM, Experiment 1",[6],4.29%
same,"Lysis of JJN-3 cells (%) at 1 pM, Experiment 2",[6],24.4%
same,"Lysis of JJN-3 cells (%) at 10 pM, Experiment 1",[6],73.6%
same,"Lysis of JJN-3 cells (%) at 10 pM, Experiment 2",[6],41.7%
same,"Lysis of JJN-3 cells (%) at 100 pM, Experiment 1",[6],56.3%
same,"Lysis of JJN-3 cells (%) at 100 pM, Experiment 2",[6],53%
same,"Lysis of JJN-3 cells (%) at 1000 pM, Experiment 1",[6],90.5%
same,"Lysis of JJN-3 cells (%) at 1000 pM, Experiment 2",[6],94.1%
same,"Lysis of JJN-3 cells (%) at 10000 pM, Experiment 1",[6],88%
same,"Lysis of JJN-3 cells (%) at 10000 pM, Experiment 2",[6],91.2%
same,"EC50 redirected T-cell killing of RPMI-8226 cells (LDH release), Donor 2",[3],47.6 pM
same,"EC50 redirected T-cell killing of RPMI-8226 cells (LDH release), Donor 3",[3],7.6 pM
same,"EC50 redirected T-cell killing of RPMI-8226 cells (LDH release), Donor 4",[3],3.2 pM
same,"EC50 redirected T-cell killing of RPMI-8226 cells (LDH release), Donor 5",[3],5.5 pM
